One may read the Kd as the constant that tells how readily two partners part at equilibrium. Read a low Kd as tighter binding.

This assay has as its target Get3^BDP•TA targeting complex (Get3 dimer with the model tail-anchored substrate 3xStrep-SUMOnc-Bos1-opsin) (yeast | not stated) (UniProt Q12154). Put plainly: FRET or BRET. For orientation: BRET reads energy transfer from a luciferase to a nearby fluorophore.

Chain of Get3^BDP•TA targeting complex (Get3 dimer with the model tail-anchored substrate 3xStrep-SUMOnc-Bos1-opsin) (yeast | not stated) (Q12154 whole entry, chain 1 of 2): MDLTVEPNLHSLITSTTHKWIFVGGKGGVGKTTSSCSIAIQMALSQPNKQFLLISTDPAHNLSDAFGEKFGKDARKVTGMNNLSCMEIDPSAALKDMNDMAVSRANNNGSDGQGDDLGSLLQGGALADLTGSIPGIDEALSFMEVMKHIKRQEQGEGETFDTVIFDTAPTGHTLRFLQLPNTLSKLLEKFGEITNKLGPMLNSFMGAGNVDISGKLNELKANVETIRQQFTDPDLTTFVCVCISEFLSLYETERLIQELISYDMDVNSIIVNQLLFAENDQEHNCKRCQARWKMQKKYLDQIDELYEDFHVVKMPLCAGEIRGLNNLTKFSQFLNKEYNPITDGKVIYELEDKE
Chain of Get3^BDP•TA targeting complex (Get3 dimer with the model tail-anchored substrate 3xStrep-SUMOnc-Bos1-opsin) (yeast | not stated) (P25385 203-244, chain 2 of 2, further chain): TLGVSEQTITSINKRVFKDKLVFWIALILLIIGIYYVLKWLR

For “mini-Get1(NR)/2^TMR (from UniProt P53192 20-102; P40056 1-150) (complex)”, the dissociation constant (Kd) was 7.1 nM. This lies in the single-digit nanomolar range. “mini-Get1/2^TMR (mini-Get1/2 labeled with TMR on Get2CD) (from UniProt P53192 20-102; P40056 1-150) (complex)” returned a reduction in donor fluorescence (FRET) of 50%. The same measure, in the same setting: as for “mini-Get1^TMR/2 (mini-Get1/2 labeled with TMR on Get1CD) (from UniProt P53192 20-102; P40056 1-150) (complex)”, the figure is 50%.

(Values after publication PMC8530227.)
